Laboratory results as given in patent US20250057980.

Molecular target: T1, Bxb1 integrase (Mycobacterium phage Bxb1?) (UniProt Q9B086)
T1 sequence: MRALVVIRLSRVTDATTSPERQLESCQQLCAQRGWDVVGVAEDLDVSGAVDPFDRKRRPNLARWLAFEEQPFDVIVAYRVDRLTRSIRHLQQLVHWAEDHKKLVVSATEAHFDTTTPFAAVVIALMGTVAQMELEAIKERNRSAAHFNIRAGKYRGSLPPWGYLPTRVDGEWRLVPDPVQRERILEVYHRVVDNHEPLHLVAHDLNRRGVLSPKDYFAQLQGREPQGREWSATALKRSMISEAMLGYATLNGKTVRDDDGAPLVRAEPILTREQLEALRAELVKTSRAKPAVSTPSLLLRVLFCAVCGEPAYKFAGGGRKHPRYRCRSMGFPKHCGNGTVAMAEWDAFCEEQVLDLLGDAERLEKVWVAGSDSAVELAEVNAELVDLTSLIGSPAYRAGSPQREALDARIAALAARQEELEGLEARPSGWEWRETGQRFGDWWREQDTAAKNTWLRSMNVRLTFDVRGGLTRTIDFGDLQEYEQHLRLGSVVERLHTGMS
Assay: cell_activity
Conditions: in vivo mouse liver, 1E11 vg Bxb1 AdV, 1E12 vg AAV; about 7% at 3E10 vg

With “AttP GT/GA dual site in Rosa26 of AttP mice with 38 bp GT AttB AAV donor” the activity (% integration) was 11.
